According to patent publication US20220348651A1, “ENTPD2 ANTIBODIES, COMBINATION THERAPIES, AND METHODS OF USING THE ANTIBODIES AND COMBINATION THERAPIES” (Novartis AG, priority 2019, published 2022):

T1: mouse ENTPD2 (Mus musculus, UniProt O55026)
T1 construct: residues 29-462 of mouse or rat ENTPD2 (the extracellular domain); mouse IgK signal peptide (N); His6; made in house; host or cells: FreeStyle 293-F cells, transient transfection
T1 sequence (O55026 29-462): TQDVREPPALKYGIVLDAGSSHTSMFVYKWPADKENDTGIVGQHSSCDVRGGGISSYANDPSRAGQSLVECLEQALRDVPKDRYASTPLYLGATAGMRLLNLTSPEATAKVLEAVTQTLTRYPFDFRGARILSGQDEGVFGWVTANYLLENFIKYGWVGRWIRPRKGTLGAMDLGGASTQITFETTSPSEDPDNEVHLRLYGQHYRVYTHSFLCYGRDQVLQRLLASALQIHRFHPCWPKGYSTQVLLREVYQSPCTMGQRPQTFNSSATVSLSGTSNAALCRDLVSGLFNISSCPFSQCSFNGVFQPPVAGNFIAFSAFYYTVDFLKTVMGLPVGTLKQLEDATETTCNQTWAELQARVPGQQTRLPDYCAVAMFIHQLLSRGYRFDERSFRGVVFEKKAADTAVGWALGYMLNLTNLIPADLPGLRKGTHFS

T2: human ENTPD2 (Homo sapiens, UniProt Q9Y5L3)
T2 construct: residues 29-462 of human or cyno ENTPD2 were cloned into expression vector; GP67 signal peptide (N); made in house; host or cells: High Five (Trichoplusia ni) insect cells, baculovirus
T2 sequence (Q9Y5L3 29-462): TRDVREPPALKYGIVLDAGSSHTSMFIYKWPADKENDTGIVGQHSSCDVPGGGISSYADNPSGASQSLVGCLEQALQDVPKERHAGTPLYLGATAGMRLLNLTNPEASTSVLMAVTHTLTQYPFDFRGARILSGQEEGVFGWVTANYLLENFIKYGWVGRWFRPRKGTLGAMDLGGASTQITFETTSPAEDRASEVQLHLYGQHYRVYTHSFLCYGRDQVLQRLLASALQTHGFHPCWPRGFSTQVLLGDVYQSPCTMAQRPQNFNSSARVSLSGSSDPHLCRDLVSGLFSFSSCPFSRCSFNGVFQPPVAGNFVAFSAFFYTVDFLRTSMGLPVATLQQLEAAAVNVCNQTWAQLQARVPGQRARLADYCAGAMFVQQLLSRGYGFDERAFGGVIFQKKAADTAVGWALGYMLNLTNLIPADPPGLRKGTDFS


Assays:
[1] = molecular target: T1, mouse ENTPD2; assay: Antibody specificity: binding to mouse ENTPD2; conditions: for BIACore KD: Mouse ENTPD2
From the text: Antibody specificity for mAbl-mAblO was confirmed. […] Antibodies mAb8, mAb9, and mAb10 show weak affinity to mouse ENTPD2. None of the selected antibodies bind to rat ENTPD2.

[2] = tested on: cynomologus (cyno) ENTPD2; assay: Biacore (SPR) affinity to cyno ENTPD2 ECD; type: binding, cynomolgus monkey; conditions: 25° C.
Experimental: (§1) Biacore Screening: Affinity was measured by determining the kinetic rate constants using surface plasmon resonance (SPR) on a Biacore T200 or T100 with the T200 sensitivity upgrade instrument (Biacore, GE Healthcare). Antibodies were captured on CM5 sensor chips (Biacore, GE Healthcare) prepared with a mouse anti-human IgG Fc antibody (ThermoFisher catalogue #05-4200) amine coupled to the surface. […] ENTPD2 analytes were allowed to associate for 180 s and dissociate for up to 1800 s depending on the off-rate of the antibody at a flow rate of 30 μL/min. The running buffer was PBS pH 7.2 (prepared from a Corning 10X stock, cat#46-013-CM)+0.05% Tween 20. Regeneration was accomplished with 30 s injections of 3 or 4 M MgCl2 to remove all the captured antibody and remaining complex from the surface, after which fresh antibody was captured. The raw data were analyzed using Biacore T200 Evaluation Software version 1.0 and fit to a 1:1 binding model, with all parameters set to fit globally except for RI, which was set to fit locally.

[3] = molecular target: T2, human ENTPD2; assay: Biacore (SPR) affinity to human ENTPD2 ECD; type: binding; conditions: 25° C.
Experimental: as §1

Chain of cynomologus (cyno) ENTPD2 (as listed by the source): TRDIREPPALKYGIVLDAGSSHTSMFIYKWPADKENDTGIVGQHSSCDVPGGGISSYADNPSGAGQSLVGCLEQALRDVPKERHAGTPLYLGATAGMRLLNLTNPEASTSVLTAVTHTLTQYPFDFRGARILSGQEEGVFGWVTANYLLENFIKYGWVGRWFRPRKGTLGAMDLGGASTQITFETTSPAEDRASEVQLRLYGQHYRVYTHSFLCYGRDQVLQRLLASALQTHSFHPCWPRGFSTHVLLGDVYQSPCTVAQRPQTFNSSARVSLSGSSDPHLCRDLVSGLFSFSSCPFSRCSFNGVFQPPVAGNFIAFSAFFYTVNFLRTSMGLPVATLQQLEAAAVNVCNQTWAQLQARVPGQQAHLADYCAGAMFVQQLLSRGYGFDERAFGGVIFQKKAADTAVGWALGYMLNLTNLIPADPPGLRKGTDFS

| Molecule | BIACore KD [1] | kd [2] | ka [3] | kd [3] | affinity / cross-reactivity to mouse ENTPD2 [1] | Kd [2] | Kd [3] | ka [2] |
| --- | --- | --- | --- | --- | --- | --- | --- | --- |
| mAb4: humanized anti-human ENTPD2 antibody from mAb16; VH SEQ ID NO: 46, VL SEQ ID NO: 57 (antibody, V domains shown) VH: QIQLQESGPGLVKPSQTLSLTCTVSGYSITSGYYWNWIRQHPGKGLEWIGYISYDADNNYNPSLKNRVTISRDTSKNQFSLKLSSVTAADTAVYYCAGGYYRYGLGSYRGSYYYVMDYWGQGTTVTVSS VL: ETVLTQSPATLSVSPGERATISCKASQSVDYEGHSYMNWYQQKPGQAPRLLIYAASNLESGIPARFSGSGSGTDFTLTISSVEPEDAATYYCQQSNEDPPTFGGGTKLEIK | No binding | 0.0057 s⁻¹ | 300000 M⁻¹ s⁻¹ | 0.00022 s⁻¹ |  |  |  | 140000 M⁻¹ s⁻¹ |
| mAb3: humanized anti-human ENTPD2 antibody from mAb17; VH SEQ ID NO: 33, VL SEQ ID NO: 29 (antibody, V domains shown) VH: QVQLVQSGAEVVKPGASVKISCKASGYTFTDYNMDWVKQAPGQRLEWIGDINPKYDISTYNQQFKGKATITVDTSASTAYMELSSLRSEDTAVYYCARRGFFLYYGINYYYFDVWGQGTLVTVSS VL: EIVLTQSPATLSASPGERITLSCSASSSVSYIHWYQQKPGQAPRLLIYSTSNLASGIPARFSGSGSGTFYTLTISSVEPEDAAVYYCHQWSSYPWTFGGGTKLEIK | No binding | 0.00098 s⁻¹ | 130000 M⁻¹ s⁻¹ | 0.00016 s⁻¹ |  |  |  | 450000 M⁻¹ s⁻¹ |
| mAb2: humanized anti-human ENTPD2 antibody from mAb17; VH SEQ ID NO: 25, VL SEQ ID NO: 29 (antibody, V domains shown) VH: QVQLVQSGAEVVKPGASVKISCKASGYTFTDYNMDWVKQAPGQRLEWIGDINPKYDISTYNQQFKGKATITVDKSASTAYMELSSLRSEDTAVYYCARRGFFLYYGINYYYFDVWGQGTLVTVSS VL: EIVLTQSPATLSASPGERITLSCSASSSVSYIHWYQQKPGQAPRLLIYSTSNLASGIPARFSGSGSGTFYTLTISSVEPEDAAVYYCHQWSSYPWTFGGGTKLEIK | No binding | 0.0012 s⁻¹ | 110000 M⁻¹ s⁻¹ | 0.00018 s⁻¹ |  | 2.8 nM | 1.7 nM | 430000 M⁻¹ s⁻¹ |

Further lines, with some results ahead:

| BIACore KD [1] | kd [2] | ka [3] | kd [3] | affinity / cross-reactivity to mouse ENTPD2 [1] | Kd [2] | Kd [3] | Molecule | ka [2] |
| --- | --- | --- | --- | --- | --- | --- | --- | --- |
| No binding | 0.003 s⁻¹ | 270000 M⁻¹ s⁻¹ | 0.00016 s⁻¹ |  |  |  | mAb5: humanized anti-human ENTPD2 antibody from mAb16; VH SEQ ID NO: 46, VL SEQ ID NO: 64 (antibody, V domains shown) VH: QIQLQESGPGLVKPSQTLSLTCTVSGYSITSGYYWNWIRQHPGKGLEWIGYISYDADNNYNPSLKNRVTISRDTSKNQFSLKLSSVTAADTAVYYCAGGYYRYGLGSYRGSYYYVMDYWGQGTTVTVSS VL: ETVLTQSPATLSVSPGERATISCKASQSVDYDGNSYMNWYQQKPGQAPRLLIYAASNLESGIPARFSGSGSGTDFTLTISSVEPEDAATYYCQQSNEDPPTFGGGTKLEIK | 290000 M⁻¹ s⁻¹ |
| Weak binding | 0.024 s⁻¹ | 290000 M⁻¹ s⁻¹ | 0.00094 s⁻¹ | weak affinity |  |  | mAb8: anti-human ENTPD2 antibody of Table 1; VH SEQ ID NO: 91, VL SEQ ID NO: 102 (antibody, V domains shown) VH: QVQLQQSGPGLVKPSQTLSLTCAISGDSVSSSSAAWNWIRQSPSRGLEWLGRIYYRSKWYNDYAVSVKSRITINPDTSKNQFSLQLNSVTPEDTAVYYCARGSYVTSSYEGFDYWGQGTLVTVSS VL: SYELTQPLSVSVALGQTARITCSGDNLPEKYAYWYQQKPGQAPVLVIYDDNKRPSGIPERFSGSNSGNTATLTISRAQAGDEADYYCQSYGKWGWTWVFGGGTKLTVL | 300000 M⁻¹ s⁻¹ |
|  | 0.021 s⁻¹ | 380000 M⁻¹ s⁻¹ | 0.0003 s⁻¹ | weak affinity |  |  | mAb9: anti-human ENTPD2 antibody of Table 1; VH SEQ ID NO: 115, VL SEQ ID NO: 125 (antibody, V domains shown) VH: QVQLVQSGAEVKKPGSSVKVSCKASGGTFDSYAVSWVRQAPGQGLEWMGRIVPWLGHTQYAQKFQGRVTITADESTSTAYMELSSLRSEDTAVYYCARESPGYRYSFDVWDQGTLVTVSS VL: SYELTQPLSVSVALGQTARITCSGDAIGEKYVYWYQQKPGQAPVLVIYDDNNRPSGIPERFSGSNSGNTATLTISRAQAGDEADYYCASYDLQQARWVFGGGTKLTVL | 990000 M⁻¹ s⁻¹ |
| Weak binding | 0.018 s⁻¹ | 340000 M⁻¹ s⁻¹ | 0.00024 s⁻¹ | weak affinity |  |  | mAb10: anti-human ENTPD2 antibody of Table 1; VH SEQ ID NO: 132, VL SEQ ID NO: 125 (antibody, V domains shown) VH: QVQLVQSGAEVKKPGSSVKVSCKASGGTFDSYAVSWVRQAPGQGLEWMGRIVPWLGFTRYAQKFQGRVTITADESTSTAYMELSSLRSEDTAVYYCARESPGYRYSFDVWDQGTLVTVSS VL: SYELTQPLSVSVALGQTARITCSGDAIGEKYVYWYQQKPGQAPVLVIYDDNNRPSGIPERFSGSNSGNTATLTISRAQAGDEADYYCASYDLQQARWVFGGGTKLTVL | 1.2e+06 M⁻¹ s⁻¹ |
